This note sets out measurements from US20190092832A1 (published 2019).

The experiment concerns the target T1, interferon-alpha/beta receptor alpha chain (IFNAR1) (UniProt P17181 28-436, limits assumed).
T1 sequence (looked up): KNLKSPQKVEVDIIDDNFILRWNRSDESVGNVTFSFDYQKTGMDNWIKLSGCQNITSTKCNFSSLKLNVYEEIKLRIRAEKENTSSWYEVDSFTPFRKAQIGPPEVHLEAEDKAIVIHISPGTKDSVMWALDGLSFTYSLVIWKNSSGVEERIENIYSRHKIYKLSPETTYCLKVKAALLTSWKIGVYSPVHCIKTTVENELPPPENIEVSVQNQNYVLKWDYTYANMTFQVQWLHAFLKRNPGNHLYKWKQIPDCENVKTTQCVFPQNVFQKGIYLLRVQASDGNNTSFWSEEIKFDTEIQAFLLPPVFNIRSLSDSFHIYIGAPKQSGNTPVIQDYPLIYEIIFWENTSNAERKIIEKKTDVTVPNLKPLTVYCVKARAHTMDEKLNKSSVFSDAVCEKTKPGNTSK
As to the kind of experiment: intrinsic fluorescence quenching of IFNAR1 titrated with peptide, double-log plot, 298 K. The method, then:
[…] Protein intrinsic fluorescence experiments were carried out at constant IFNAR1 concentration titrated with different concentrations of IFNβ analog peptide to reach a maximum molar ratio of the IFNβ analog peptide-IFNAR1, and the complex maximum molar ratio of the IFNβ analog peptide-IFNAR1 was 10.
In these experiments, 1.0 ml solution with a fixed concentration of the […] was precisely added into the quartz cell with a 1 cm path length and was manually titrated by successive additions of the IFNβ analog peptide at 5 min time intervals. The fluorescence emission spectra were then measured, and the maximum fluorescence intensity at a wavelength of about 340 nm was used to calculate the binding constant parameters.
Fluorescence quenching data from the interaction of the IFNβ analog peptide and IFNAR1 were analyzed to obtain various binding parameters. The binding constant (Kₐ) and the number of binding (n) were calculated according to the Eq. 1, where F₀ is the fluorescence emission intensities of IFNAR1 in the absence of the IFNβ analog peptide, F is the fluorescence emission intensities of IFNAR1 in the presence of the IFNβ analog peptide, [P] is the IFNβ analog peptide concentration, Kₐ is the binding constant, and n is the apparent molar ratio of [IFNβ analog peptide]/[IFNAR1] complex.

Regarding MLQNGRDVRKRGFSDTGLRKLGRVNLL (also called MSPEP27) [IFNβ analog peptide with SEQ ID No. 2], the Ka was 3.67e+07 M⁻¹.
